The target of this test is T1, GST-SAP30L (human, UniProt Q9HAJ7 1-183).
T1 sequence (looked up): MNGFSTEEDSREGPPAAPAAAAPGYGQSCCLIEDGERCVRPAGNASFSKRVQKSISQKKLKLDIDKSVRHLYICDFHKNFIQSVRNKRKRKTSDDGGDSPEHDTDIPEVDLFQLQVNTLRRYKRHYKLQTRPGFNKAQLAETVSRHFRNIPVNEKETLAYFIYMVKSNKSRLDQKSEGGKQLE
Briefly: pull-down.

B1: in vitro translated N-terminally deleted SAP30L (SAP30L 61–183) (domain or fragment, human, UniProt Q9HAJ7 61-183, looked up)
chain: KLDIDKSVRHLYICDFHKNFIQSVRNKRKRKTSDDGGDSPEHDTDIPEVDLFQLQVNTLRRYKRHYKLQTRPGFNKAQLAETVSRHFRNIPVNEKETLAYFIYMVKSNKSRLDQKSEGGKQLE
modifications: 35S-methionine label
For B1, the “fold change of interaction against full-length SAP30L” value is above 2 fold.

The values above are taken from paper PMC1500868 (Nucleic Acids Research, 2006).
